How the values were obtained:
human CD19 on CHO cells = biological target: T1, human CD19 on CHO cells (human, UniProt P15391 20-556); assay: flow cytometry, CHO cells, 100 nM IgG
T1 construct: whole, on cells; also called Cells Expressing Human CD19; CHO cells overexpressing the antigen
T1 sequence (looked up): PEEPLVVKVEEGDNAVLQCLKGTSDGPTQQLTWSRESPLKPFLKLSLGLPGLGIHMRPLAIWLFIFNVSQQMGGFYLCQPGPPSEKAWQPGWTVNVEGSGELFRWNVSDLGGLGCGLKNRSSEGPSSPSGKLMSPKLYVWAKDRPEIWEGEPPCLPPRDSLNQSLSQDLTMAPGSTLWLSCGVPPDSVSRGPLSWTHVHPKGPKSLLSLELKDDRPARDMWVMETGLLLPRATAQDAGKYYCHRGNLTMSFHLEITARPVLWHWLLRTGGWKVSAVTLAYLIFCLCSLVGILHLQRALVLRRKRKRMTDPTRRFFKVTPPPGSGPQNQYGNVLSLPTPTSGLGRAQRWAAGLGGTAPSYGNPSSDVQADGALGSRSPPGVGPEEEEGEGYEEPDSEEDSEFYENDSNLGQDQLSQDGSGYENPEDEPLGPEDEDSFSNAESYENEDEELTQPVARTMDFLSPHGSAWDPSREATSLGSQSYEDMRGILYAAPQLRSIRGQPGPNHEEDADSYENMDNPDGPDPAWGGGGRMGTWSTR
Method: The binding affinity of the antibodies to CD19 expressed on the cell surface was also measured. Briefly, approximately 100,000 Chinese hamster overy (CHO) cells overexpressing the antigen were washed with wash buffer and incubated with 100 μl 100 nM IgG for 15 minutes at room temperature. Cells were then washed twice with wash buffer and incubated with 100 μl of 1:100 Human-PE for 15 minutes on ice. Cells were then washed twice more with wash buffer and analyzed on a FACS Canto II analyzer (BD Biosciences).

human CD19 = biological target: T2, human CD19 (human, UniProt P15391 20-291, biotinylated in the Biacore assay of Table 11); assay: Octet HTX (ForteBio), IgG on AHC sensor, 1:1 fit
T2 construct: also called isolated CD19; Human CD19 Protein
T2 sequence (looked up): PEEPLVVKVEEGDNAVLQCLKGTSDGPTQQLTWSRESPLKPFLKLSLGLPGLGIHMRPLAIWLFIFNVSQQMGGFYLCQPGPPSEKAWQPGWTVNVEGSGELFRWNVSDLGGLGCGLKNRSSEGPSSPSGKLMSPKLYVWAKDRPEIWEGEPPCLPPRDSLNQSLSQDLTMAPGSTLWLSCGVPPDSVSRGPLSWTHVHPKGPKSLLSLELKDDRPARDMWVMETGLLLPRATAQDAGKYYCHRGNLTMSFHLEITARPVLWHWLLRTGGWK
Method: The binding affinity of the antibodies to isolated CD19 was measured by […] using a ForteBio Octet HTX system as previously described (see, e.g., Estep et al, High throughput solution-based measurement of antibody-antigen affinity and epitope binning. Mabs 5(2), 270-278 (2013)). Briefly, ForteBio affinity measurements were performed by loading IgGs on-line onto anti-hIgG Fc Capture (AHC) sensors. The sensors were equilibrated off-line in assay buffer for 30 minutes and then monitored on-line for 60 seconds for baseline establishment. The sensors with loaded IgGs were exposed to 100 nM […] for 3 minutes, and subsequently transferred to assay buffer for 3 minutes for off-rate measurement. All kinetics were analyzed using the 1:1 binding model.

B1: CNG-CD19-1 (antibody, V domains shown)
VH: QVQLVQSGAEVKKPGASVKVSCKASGYTFTDYIMHWVRQAPGQGLEWMGYINPYNDGSKYTEKFQGRVTMTSDTSISTAYMELSRLRSDDTAVYYCARGTYYYGPQLFDYWGQGTTVTVSS
VL: DIVMTQTPLSLSVTPGQPASISCKSSQSLETSTGTTYLNWYLQKPGQSPQLLIYRVSKRFSGVPDRFSGSGSGTDFTLKISRVEAEDVGVYYCLQLLEDPYTFGQGTKLEIK
notes: tested as IgG; also called parental antibody
B1 was tested, and the “Binding to Cells Expressing Human CD19 (FOB)” value (“Binding” for short) (human CD19 on CHO cells) was 267 FOB, the Kd (human CD19) was 346 pM and the koff (human CD19) was 0.000114 s⁻¹.

B2: CNG-CD19-101 (antibody, V domains shown)
VH: QVQLVQSGAEVKKPGASVKVSCKASGYDFTDYIMHWVRQAPGQGLEWMGYINPYNDGSKYTDKFQERVTMTSDTSISTAYMELSRLRSDDTAVYYCARGTYYYGPELFDYWGQGTTVTVSS
VL: DIVMTQTPLSLSVTPGQPASISCKSSQSLETTTGTTYLNWYLQKPGQSPQLLIYRASKRFSGVPDRFSGSGSGTDFTLKISRVEAEDVGVYYCLQLLEDPYTFGQGTKLEIK
notes: tested as IgG produced in yeast
B2 was tested, and the “Binding” value (human CD19 on CHO cells) was 296 FOB, the Kd (human CD19) was 144 pM and the koff (human CD19) was 5.72e-05 s⁻¹.

B3: CNG-CD19-102 (antibody, V domains shown)
VH: QVQLVQSGAEVKKPGASVKVSCKASGYEFTDYIMHWVRQAPGQGLEWMGYINPYNDGSKYTEKFQPRVTMTSDTSISTAYMELSRLRSDDTAVYYCARGTYYYGPQLFDYWGQGTTVTVSS
VL: DIVMTQTPLSLSVTPGQPASISCKSSQSLETSTGTTYLNWYLQKPGQSPQLLIYRVSKRFSGVPDRFSGSGSGTDFTLKISRVEAEDVGVYYCLQLLEDPYTFGQGTKLEIK
notes: as for B2
With B3 the “Binding” value (human CD19 on CHO cells) was 258 FOB, the Kd (human CD19) was 298 pM and the koff (human CD19) was 9.12e-05 s⁻¹.

B4: CNG-CD19-103 (antibody, V domains shown)
VH: QVQLVQSGAEVKKPGASVKVSCKASGYTFTDYIMHWVRQAPGQGLEWMGYINPYNDGSKYTEKFQGRVTMTSDTSISTAYMELSRLRSDDTAVYYCARGTYYYGPQLFDYWGQGTTVTVSS
VL: DIVMTQTPLSLSVTPGQPASISCKSSQSLETATGTTYLNWYLQKPGQSPQLLIYRVSRRFSGVPDRFSGSGSGTDFTLKISRVEAEDVGVYYCLQLLEDPYSFGQGTKLEIK
notes: as for B2
With B4 the “Binding” value (human CD19 on CHO cells) was 286 FOB, the Kd (human CD19) was 106 pM and the koff (human CD19) was 4e-05 s⁻¹.

B5: CNG-CD19-104 (antibody, V domains shown)
VH: QVQLVQSGAEVKKPGASVKVSCKASGYDFTDYIVHWVRQAPGQGLEWMGYINPYNDGSKYTEKFQGRVTMTSDTSISTAYMELSRLRSDDTAVYYCARGTYYYGPELFDYWGQGTTVTVSS
VL: DIVMTQTPLSLSVTPGQPASISCKSGQSLETSTGTTYLNWYLQKPGQSPQLLIYRVSRRFSGVPDRFSGSGSGTDFTLKISRVEAEDVGVYYCLQLLEDPYTFGQGTKLEIK
notes: as for B2
B5 was tested, and the “Binding” value (human CD19 on CHO cells) was 327 FOB, the Kd (human CD19) was 144 pM and the koff (human CD19) was 6e-05 s⁻¹.

B6: CNG-CD19-105 (antibody, V domains shown)
VH: QVQLVQSGAEVKKPGASVKVSCKASGYEFTDYIMHWVRQAPGQGLEWMGYINPYNDGSKYTEKFEGRVTMTSDTSISTAYMELSRLRSDDTAVYYCARGTYYYGPELFDYWGQGTTVTVSS
VL: DIVMTQTPLSLSVTPGQPASISCKSSQRLETSTGTTYLNWYLQKPGQSPQLLIYRVSRRFSGVPDRFSGSGSGTDFTLKISRVEAEDVGVYYCLQLLEDPPTFGQGTKLEIK
notes: as for B2
For B6, the “Binding” value (human CD19 on CHO cells) was 351 FOB, the Kd (human CD19) was 164 pM and the koff (human CD19) was 8.28e-05 s⁻¹.

B7: CNG-CD19-106 (antibody, V domains shown)
VH: QVQLVQSGAEVKKPGASVKVSCKASGYDFTDYIMHWVRQAPGQGLEWMGYINPYNDGSEYTEKFQGRVTMTSDTSISTAYMELSRLRSDDTAVYYCARGTYYYGPQLFDYWGQGTTVTVSS
VL: DIVMTQTPLSLSVTPGQPASISCKSSQSLETATGTTYLNWYLQKPGQSPQLLIYRVSRRFSGVPDRFSGSGSGTDFTLKISRVEAEDVGVYYCLQLLEDPYTFGQGTKLEIK
notes: as for B2
With B7 the “Binding” value (human CD19 on CHO cells) was 354 FOB, the Kd (human CD19) was 189 pM and the koff (human CD19) was 0.000114 s⁻¹.

B8: CNG-CD19-107 (antibody, V domains shown)
VH: QVQLVQSGAEVKKPGASVKVSCKASGYDFTDYIMHWVRQAPGQGLEWMGYINPYNDGSKYTEKFQHRVTMTSDTSISTAYMELSRLRSDDTAVYYCARGTYYYGPQLFDYWGQGTTVTVSS
VL: DIVMTQTPLSLSVTPGQPASISCKSSQSLETSTGTTYLNWYLQKPGQSPQLLIYRVSRRFSGVPDRFSGSGSGTDFTLKISRVEAEDVGVYYCLQLLEDPYTFGQGTKLEIK
notes: as for B2
B8 was tested, and the “Binding” value (human CD19 on CHO cells) was 315 FOB, the Kd (human CD19) was 277 pM and the koff (human CD19) was 5.71e-05 s⁻¹.

B9: CNG-CD19-108 (antibody, V domains shown)
VH: QVQLVQSGAEVKKPGASVKVSCKASGYDFTDYIVHWVRQAPGQGLEWMGYINPYNDGSKYTEKFQGRVTMTSDTSISTAYMELSRLRSDDTAVYYCARGTYYYGPQLFDYWGQGTTVTVSS
VL: DIVMTQTPLSLSVTPGQPASISCKSSQSLETVTGTTYLNWYLQKPGQSPQLLIYRVSKRFSGVPDRFSGSGSGTDFTLKISRVEAEDVGVYYCLQLLEDPPTFGQGTKLEIK
notes: as for B2
For B9, the “Binding” value (human CD19 on CHO cells) was 319 FOB, the Kd (human CD19) was 164 pM and the koff (human CD19) was 5.26e-05 s⁻¹.

B10: CNG-CD19-109 (antibody, V domains shown)
VH: QVQLVQSGAEVKKPGASVKVSCKASGYDFTDYIVHWVRQAPGQGLEWMGYINPYNDGSLYTEKFQGRVTMTSDTSISTAYMELSRLRSDDTAVYYCARGTYYYGPQLFDYWGQGTTVTVSS
VL: DIVMTQTPLSLSVTPGQPASISCKSSQQLETSTGTTYLNWYLQKPGQSPQLLIYRASKRFSGVPDRFSGSGSGTDFTLKISRVEAEDVGVYYCLQLLEDPYSFGQGTKLEIK
notes: as for B2
In the case of B10, the “Binding” value (human CD19 on CHO cells) is reported as 334 FOB, the Kd (human CD19) is reported as 144 pM and the koff (human CD19) is reported as 4e-05 s⁻¹.

B11: CNG-CD19-110 (antibody, V domains shown)
VH: QVQLVQSGAEVKKPGASVKVSCKASGYTFTDYIMHWVRQAPGQGLEWMGYINPYNDGSKYTEKFQGRVTMTSDTSISTAYMELSRLRSDDTAVYYCARGTYYYGPQLFDYWGQGTTVTVSS
VL: DIVMTQTPLSLSVTPGQPASISCKSSQSLETSTGTTYLNWYLQKPGQSPQLLIYRSSKRFSGVPDRFSGSGSGTDFTLKISRVEAEDVGVYYCLQLLEDPPTFGQGTKLEIK
notes: as for B2
For B11, the “Binding” value (human CD19 on CHO cells) was 293 FOB, the Kd (human CD19) was 353 pM and the koff (human CD19) was 0.000121 s⁻¹.

B12: CNG-CD19-7 (antibody, V domains shown)
VH: QVQLQESGPGLVKPSQTLSLTCTVSGGSISTSGMGVGWIRQHPGKGLEWIGHIWWDDDKRYNPALKSRVTISVDTSKNQFSLKLSSVTAADTAVYYCARMELWSYYFDYWGQGTLVTVSS
VL: EIVLTQSPATLSLSPGERATLSCSASSSVSYMHWYQQKPGQAPRLLIYDTSKLASGIPARFSGSGSGTDFTLTISSLEPEDFAVYYCFQGSVYPFTFGQGTKLEIK
notes: as for B1
In the case of B12, the “Binding” value (human CD19 on CHO cells) is reported as 71 FOB, the Kd (human CD19) is reported as 2250 pM and the koff (human CD19) is reported as 0.000396 s⁻¹.

B13: CNG-CD19-701 (antibody, V domains shown)
VH: QVQLQESGPGLVKPSQTLSLTCTVSGGSISTSTMGVGWIRQHPGKGLEWIGFIWWDDDKRYNPNLKSRVTMSVDTSKNQFSLKLSSVTAADTAVYYCARMELWSYYFDYWGQGTLVTVSS
VL: EIVLTQSPATLSLSPGERATLSCSASSSVGYMHWYQQKPGQAPRLLIYDTSKLASGIPARFSGSGSGTDFTLTISSLEPEDFAVYYCFQGSVYPFTFGQGTKLEIK
notes: as for B2
B13 was tested, and the “Binding” value (human CD19 on CHO cells) was 195 FOB, the Kd (human CD19) was 187 pM and the koff (human CD19) was 7.05e-05 s⁻¹.

B14: CNG-CD19-702 (antibody, V domains shown)
VH: QVQLQESGPGLVKPSQTLSLTCTVSGGSTSTSGMGVSWIRQHPGKGLEWIGHIWWDDDKRYNPVLKSRVTISVDTSKNQFSLKLSSVTAADTAVYYCARMELWSYYFDPWGQGTLVTVSS
VL: EIVLTQSPATLSLSPGERATLSCSASSSVSYMHWYQQKPGQAPRLLIYDTSKLASGIPARFSGSGSGTDFTLTISSLEPEDFAVYYCFQGSVYPFTFGQGTKLEIK
notes: as for B2
In the case of B14, the “Binding” value (human CD19 on CHO cells) is reported as 180 FOB, the Kd (human CD19) is reported as 500 pM and the koff (human CD19) is reported as 0.000175 s⁻¹.

B15: CNG-CD19-703 (antibody, V domains shown)
VH: QVQLQESGPGLVKPSQTLSLTCTVSGGSISTSTMGVGWIRQHPGKGLEWIGFIWWDDDKRYNPNLKSRVTMSVDTSKNQFSLKLSSVTAADTAVYYCARMELWSYYFEYWGQGTLVTVSS
VL: EIVLTQSPATLSLSPGERATLSCSASSSVSYMHWYQQKPGQAPRLLIYDTSKLASGIPARFSGSGSGTDFTLTISSLEPEDFAVYYCFQGSVYPFTFGQGTKLEIK
notes: as for B2
In the case of B15, the “Binding” value (human CD19 on CHO cells) is reported as 135 FOB, the Kd (human CD19) is reported as 289 pM and the koff (human CD19) is reported as 8.19e-05 s⁻¹.
